# Results from patent publication CN113307874A (GUANGZHOU EXCELMAB BIOMEDICAL TECH CO LTD, dated 2021).
# Where a chain is given by its changes, count along the chain named.
# T1: 过表达人LAG3抗原的Jurkat/LAG3细胞表面的人LAG3 (human, UniProt P18627 23-525)
# T1 construct: whole, on cells; also called 过表达人LAG3的Jurkat细胞
# T1 sequence (looked up): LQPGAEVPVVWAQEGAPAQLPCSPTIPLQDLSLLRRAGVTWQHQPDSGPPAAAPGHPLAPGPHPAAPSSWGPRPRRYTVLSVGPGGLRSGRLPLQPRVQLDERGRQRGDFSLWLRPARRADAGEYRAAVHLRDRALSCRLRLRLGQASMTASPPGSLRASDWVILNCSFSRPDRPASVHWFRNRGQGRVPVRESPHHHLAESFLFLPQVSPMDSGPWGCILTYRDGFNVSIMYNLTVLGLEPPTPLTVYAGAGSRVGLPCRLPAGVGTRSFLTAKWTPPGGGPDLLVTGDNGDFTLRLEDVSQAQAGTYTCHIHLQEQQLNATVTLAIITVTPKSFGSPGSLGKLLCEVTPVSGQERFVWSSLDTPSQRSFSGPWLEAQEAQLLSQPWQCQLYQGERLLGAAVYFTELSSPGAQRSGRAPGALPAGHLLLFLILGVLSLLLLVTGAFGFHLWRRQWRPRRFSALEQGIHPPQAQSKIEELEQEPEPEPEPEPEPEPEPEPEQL
# T2: 人LAG3抗原 (ACRO, Cat.LA3-H5222) (human, UniProt P18627 23-450)
# T2 construct: Bought protein; also called human LAG3 antigen
# T2 sequence (looked up): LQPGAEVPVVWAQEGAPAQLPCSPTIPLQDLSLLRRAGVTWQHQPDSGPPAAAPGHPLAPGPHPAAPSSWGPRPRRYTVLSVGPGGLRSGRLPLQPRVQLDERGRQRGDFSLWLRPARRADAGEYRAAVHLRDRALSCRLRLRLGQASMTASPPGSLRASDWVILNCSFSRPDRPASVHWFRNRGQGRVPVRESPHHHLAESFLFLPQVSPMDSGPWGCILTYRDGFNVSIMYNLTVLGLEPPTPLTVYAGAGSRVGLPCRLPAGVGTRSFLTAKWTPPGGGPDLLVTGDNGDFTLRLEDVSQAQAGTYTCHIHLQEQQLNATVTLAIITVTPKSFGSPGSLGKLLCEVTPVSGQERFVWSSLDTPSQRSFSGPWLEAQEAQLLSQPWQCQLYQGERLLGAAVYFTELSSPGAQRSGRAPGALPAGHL
# B1: 人源化抗体 hmL42 (antibody, V domains shown)
# VH: QVQLVQSGAEVKKPGASVKVSCKASGYTFTDYEVHWVKQAPGQGLEWMGAIHPGSGGAAYNQKVKGKVTMTADTSISTAYMELSRLRSDDTAVYYCTSYGWNDWGQGTTVTVS
# VL: DIQLTQSPSFLSASVGDRVTITCKASQDVSTAVAWYQQKPGKSPKLLISWASTRHTGVPDRFAGSGSGTDFTLTISSLQPEDFATYYCQQYSSYPYTFGQGTKLEIK
# B2: hmL42人源化亲和力成熟变体 R3G5 (antibody, V domains shown)
# VH: B1 VH
# VL: B1 VL with S92V, S93M, Y94F, Y96F
# B3: hmL42人源化亲和力成熟变体 R2D12 (antibody, V domains shown)
# VH: B1 VH
# VL: B1 VL with S92M, Y94F, P95A, Y96F
# B4: hmL42人源化亲和力成熟变体 R3D4 (antibody, V domains shown)
# VH: B1 VH
# VL: B1 VL with S92N, S93V, Y94F, P95A, Y96F
# B5: hmL42人源化亲和力成熟变体 R3C5 (antibody, V domains shown)
# VH: B1 VH
# VL: B1 VL with S92W, S93V, Y94W, P95D, T97V
# B6: hmL42人源化亲和力成熟变体 R3G4 (antibody, V domains shown)
# VH: B1 VH
# VL: B1 VL with S92I, S93D, Y94F, Y96F, T97V
# B7: hmL42人源化亲和力成熟变体 R2C9 (antibody, V domains shown)
# VH: B1 VH
# VL: B1 VL with Q89M, Q90S, S92V, S93V, Y94F
# B8: hmL42人源化亲和力成熟变体 R3G6 (antibody, V domains shown)
# VH: B1 VH
# VL: B1 VL with S92V, S93D, Y94F, Y96F, T97K
# B9: hmL42人源化亲和力成熟变体 R2H11 (antibody, V domains shown)
# VH: B1 VH
# VL: B1 VL with S92Y, Y94W, P95S
# B10: hmL42人源化亲和力成熟变体 R3C4 (antibody, V domains shown)
# VH: B1 VH
# VL: B1 VL with S92V, S93A, Y94F, P95S, Y96F
# B11: hmL42人源化亲和力成熟变体 R2 (antibody, V domains shown)
# VH: B1 VH
# VL: B1 VL with Q89M, Q90G, S92L, S93F, Y94F
# B12: hmL42人源化亲和力成熟变体 R3H5 (antibody, V domains shown)
# VH: B1 VH
# VL: B1 VL with S92W, S93V, Y94F, P95S, Y96F
# B13: hmL42人源化亲和力成熟变体 R3H9 (antibody, V domains shown)
# VH: B1 VH
# VL: B1 VL with S92V, S93D, Y94F
# B14: hmL42人源化亲和力成熟变体 R2A8 (antibody, V domains shown)
# VH: B1 VH
# VL: B1 VL with Q89M, Q90G, S92W, S93V, Y94F
# B15: hmL42人源化亲和力成熟变体 R2B11 (antibody, V domains shown)
# VH: B1 VH
# VL: B1 VL with S92V, S93V, Y94F, P95S, T97S
# B16: hmL42人源化亲和力成熟变体 R2E8 (antibody, V domains shown)
# VH: B1 VH
# VL: B1 VL with Q89H, S92I, S93M, Y94F
# B17: hmL42人源化亲和力成熟变体 R3B6 (antibody, V domains shown)
# VH: B1 VH
# VL: B1 VL with S92L, Y94F, Y96F, T97M
# B18: hmL42人源化亲和力成熟变体 R2G10 (antibody, V domains shown)
# VH: B1 VH
# VL: B1 VL with S92W, S93E, Y94F, P95S, Y96F
# B19: hmL42人源化亲和力成熟变体 R3B5 (antibody, V domains shown)
# VH: B1 VH
# VL: B1 VL with S92V, S93R, Y94F, P95S
# B20: 鼠源抗LAG3抗体 mL42 (antibody, V domains shown)
# VH: EVQLQQSGAELVRPGASVKLSCKALGYTFTDYEVHWLKQTPVRGLEWIGAIHPGSGGAAYNQKVKGKATLTADKSSSTAYMELSVLTSEDSAVYYCTSYGWNDWGQGTTLTVSS
# VL: DILMNQSHKFMSTSVGDRVSIACKASQDVSTAVAWYQQKPGQSPKLLISWASTRHTGVPDRFAGSGSGTDFTLTINNVQSEDLADYFCQQYSSYPYTFGGGTKLELER
# notes: detected with anti-human IgG secondary antibodies
# Columns and labels:
# [1] = target: T1, 过表达人LAG3抗原的Jurkat/LAG3细胞表面的人LAG3; experiment: indirect flow cytometry on Jurkat/LAG3 cells
# [2] = target: T2, 人LAG3抗原 (ACRO, Cat.LA3-H5222); experiment: indirect ELISA, coated human LAG3
# [3] = target: T2, 人LAG3抗原 (ACRO, Cat.LA3-H5222); experiment: indirect ELISA, coated human LAG3; remark: listed apart in the source
Binder,binding result [1],binding result [2],EC50 [3]
B1,binds,binds,
B2,,,0.138 µg/mL
B3,,,0.119 µg/mL
B4,,,0.112 µg/mL
B5,,,0.437 µg/mL
B6,,,0.175 µg/mL
B7,,,0.221 µg/mL
B8,,,0.206 µg/mL
B9,,,0.382 µg/mL
B10,,,0.248 µg/mL
B11,,,0.202 µg/mL
B12,,,0.147 µg/mL
B13,,,0.183 µg/mL
B14,,,0.132 µg/mL
B15,,,0.244 µg/mL
B16,,,0.204 µg/mL
B17,,,0.216 µg/mL
B18,,,0.16 µg/mL
B19,,,0.184 µg/mL
B20,binds,binds,
